According to the RNAGym collection of RNA variant scans (doi:10.1073/pnas.2313332121):

B1: TPR t1 (parent)
chain: GACCAAUCUGCCCUCAGAGCUCGAGAACAUCUUCGGAUGCAGAGGAGGCAGGCUUCGGUGGCGCGAUAGCGCCAACGUCCUCAACCUCCAAUGCAUCCCACCACAUGAUGAUGCCUGAAGAGCCUUGGUUUUUUG

Variants of: B1
Test: polymerase ribozyme fitness, log enrichment relative to wild type (log ratio); higher = more active; in vitro selection for triplet polymerase activity
How it was run: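 Genotype fitness is the logarithm of its enrichment divided by wild-type enrichment, using inverse-variance-weighted averages of replicates. That logarithm is base 2. Enrichment was measured by Illumina sequencing of input and output libraries from one triplicate in vitro selection round, with frozen incubation at −7 °C, on PCR-built, transcribed mutant libraries of each subunit of a heterodimeric triplet polymerase ribozyme, retaining genotypes with ≥10 input reads and ≥1 read per output.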

| Variant | polymerase ribozyme fitness (log ratio) |
| --- | --- |
| C12A G45U G51C G52U U59C C123G | -5.71 |
| A24G G63U G113U | -6.59 |
| U32C G44U U92G A118U U133A | -3.79 |
| U7A C13U C15U G44U U59C G77U | -2.18 |
| A29U G47U | -3.05 |
| A18G U132A | -3.07 |
| G36C C76G | -1.25 |
| C13U A46U C72G G122A | -1.17 |
| G10A C13U C86G | -0.113 |
| G44U C82U U106G G120A | -0.344 |
| A41G G69U G93C | -0.214 |
| U54G C89A U131G | -2.74 |
| C4U C12A U59C A66C | -2.92 |
| G36U G45A A119U | -1.61 |
| C8G C62U C86G G117A A119U | -0.52 |
| G51U U78C A111C C123U | -6.69 |
| C15A C72G | -2.3 |
| G36C G51A C70A C101U | -7.34 |
| C88G U96A | -2.61 |
| C88A C99U G113A C114U | -5.9 |
| G61A U129C | 0.132 |

| Variant | polymerase ribozyme fitness (log ratio) |
| --- | --- |
| G10U G47A | -0.776 |
| C11U A26U C49G C73U | -3.93 |
| C104U U106A U109A C114U C123U | -6.98 |
| C11A A50G U126A | -3.95 |
| A2U U7A A46C G48A C82A G127C | -4.28 |
| C72A A121U | 2.22 |
| C13U C76G C85U C104G | -7.55 |
| U96A A119U | -1.13 |
| C15A U32C | -1.58 |
| C12U U54A C64U | 0.381 |
| C13U U81A | -0.11 |
| C12U C72U G128U | -1.55 |
| U30C A50G A74G C123U | -3.32 |
| C11A C12A A41G C89U | -2.15 |
| C15U G39A | -3.08 |
| C11U U129A | -2.36 |
| A6U C94A U96G | -3.1 |
| U7A G48C C85U G120C | -0.382 |
| C8U C70G U78C G113A A121G | -3.57 |
| U14G A18U G61A C115A U129A U132A | -3.2 |
| C64U A66G | -3.44 |

| Variant | polymerase ribozyme fitness (log ratio) |
| --- | --- |
| G69U C70G U109A A111C | -5.41 |
| C8A A43C C86G C123U U129G | -2.96 |
| G36U A68G | -3.62 |
| A29G A111C | -0.114 |
| G61A G93U | -0.737 |
| C62U U131G | -0.5 |
| U7G A105C G120U | -0.828 |
| C8G C15U C70U | -0.473 |
| C28U A108G | -4.76 |
| U67C U131A | -4.05 |
| A24G U96G C102A | -5.25 |
| U14C G36C U133A | -4.29 |
| G63U G120C U131A | 0.507 |
| C12A G19U G42U C70A U92A U112C U129G | -5.98 |
| C28U A111C | -3.29 |
| A2U G77C U116A C124A U130C | -0.208 |
| C73U C85U | -0.444 |
| C49U G60A C82U U106A G120C G135A | 0.366 |
| U7G C13U A84U U96A A121C | 0.875 |
| C22A G48U C56U | -4.88 |
| C40G G120U | -0.437 |

| Variant | polymerase ribozyme fitness (log ratio) |
| --- | --- |
| C8A G71A | 0.22 |
| A18U A37C C101A | -4.02 |
| C34A U55A C88A | -3.93 |
| U81A | -1.01 |
| C8G U9G C70A | -1.19 |
| G35A C64U A103C G120A | -5.9 |
| G48C U67C G71A A95G U106A | -8.09 |
| U9G C72A A95G | 0.389 |
| G63A C82G G117U C123G | -3.95 |
| C40A G61C A66U G128U U129A U133G | -6 |
| C101U C124A | 1.17 |
| C70G U106C | -2.51 |
| A26C C34A C56A C94G A111U | -7 |
| G17C C49A C72U C82U C114U | -4.65 |
| C56G U116C U130G | -0.701 |
| A27U C72U | -3.48 |
| G71C G117C | -4.7 |
| G45A A46C G58U G61U C85A | -4.13 |
| C70A U132A | -0.853 |
| A84C U130C | -0.28 |
